For one substance, binding to cells expressing the variant (+%) results are on record in patent US8329178B2.

Common to all, as to test: FACS, 293T cells expressing CXCR4 variants
(In flow cytometry, cells or beads pass a laser one at a time.)

One assay addresses ΔN31-CXCR4 (human) (UniProt P61073).
Assay [1] addresses CXCR2/CXCR4 chimera 4442 (human) (UniProt P61073).
Assay [2] has as its target CXCR2/CXCR4 chimera 2444b (human) (UniProt P61073).
Assay [3] has as its target human CXCR4 (wild type) (human) (UniProt P61073).
Another assay has as its target ΔN25-CXCR4 (human) (UniProt P61073).
Assay [4] addresses CXCR2/CXCR4 chimera 2442 (human) (UniProt P61073).

For murine monoclonal antibody 12G5, the binding to cells expressing the variant (+%) amounted to 55.4% in the assay with ΔN31-CXCR4 (human); 103% in assay [1]; 70.1% in assay [2]; 100% in assay [3]; 69.2% in the assay with ΔN25-CXCR4 (human); 85.8% in assay [4].
